Article PMC2783425 (Biochemistry, 2009)

Legend:
SufA (E. coli) = SufA (E. coli) (UniProt P77667); assay: SPR
SufB = biological target: T1, SufB (E. coli, UniProt P77522 1-495); assay: cross-linking
T1 sequence (looked up): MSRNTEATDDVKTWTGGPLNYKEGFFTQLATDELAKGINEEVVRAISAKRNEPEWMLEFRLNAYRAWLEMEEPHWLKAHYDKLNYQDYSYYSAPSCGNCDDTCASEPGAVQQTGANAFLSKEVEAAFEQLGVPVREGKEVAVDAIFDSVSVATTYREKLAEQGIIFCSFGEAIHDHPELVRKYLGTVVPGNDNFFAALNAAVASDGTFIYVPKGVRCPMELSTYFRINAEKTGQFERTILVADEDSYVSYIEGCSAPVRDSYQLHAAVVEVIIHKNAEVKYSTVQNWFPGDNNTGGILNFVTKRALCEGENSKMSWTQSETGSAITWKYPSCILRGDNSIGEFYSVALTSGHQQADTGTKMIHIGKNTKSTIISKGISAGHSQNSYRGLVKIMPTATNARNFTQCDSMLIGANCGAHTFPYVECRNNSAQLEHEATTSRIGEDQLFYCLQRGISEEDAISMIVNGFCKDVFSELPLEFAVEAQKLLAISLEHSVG

SufC = biological target: T2, SufC (E. coli, UniProt P77499 1-248); assay: cross-linking
T2 sequence (looked up): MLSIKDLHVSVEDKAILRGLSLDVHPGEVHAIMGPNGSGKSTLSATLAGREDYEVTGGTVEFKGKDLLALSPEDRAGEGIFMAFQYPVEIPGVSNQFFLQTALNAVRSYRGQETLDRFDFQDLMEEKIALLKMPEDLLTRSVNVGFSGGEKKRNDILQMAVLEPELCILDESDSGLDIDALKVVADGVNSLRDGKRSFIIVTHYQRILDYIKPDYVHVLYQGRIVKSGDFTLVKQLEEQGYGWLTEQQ

(His)6-SufS = biological target: T3, (His)6-SufS (E. coli, UniProt P77444 1-406); assay: SPR
T3 sequence (looked up): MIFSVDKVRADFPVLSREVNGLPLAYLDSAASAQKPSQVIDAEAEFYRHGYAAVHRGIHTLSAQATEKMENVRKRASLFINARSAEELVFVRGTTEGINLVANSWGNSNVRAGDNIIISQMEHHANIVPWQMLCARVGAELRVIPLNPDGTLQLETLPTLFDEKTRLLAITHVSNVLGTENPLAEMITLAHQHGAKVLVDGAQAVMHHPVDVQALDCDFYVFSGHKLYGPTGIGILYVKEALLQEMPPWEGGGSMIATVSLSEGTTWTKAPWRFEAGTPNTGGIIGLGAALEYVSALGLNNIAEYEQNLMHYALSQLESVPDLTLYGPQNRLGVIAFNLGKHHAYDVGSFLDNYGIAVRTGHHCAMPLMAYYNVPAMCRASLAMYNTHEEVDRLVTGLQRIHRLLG

SEC = biological target: the molecule itself; assay: SEC

“(His)6-SufS (from UniProt P77444 1-406) (enzyme)” was tested, and the Kd (SufA (E. coli)) was 1400 nM.

B1: SufA pre-labeled with Mts-Atf-Biotin (natural protein, E. coli, UniProt P77667 1-122, looked up)
chain: MDMHSGTFNPQDFAWQGLTLTPAAAIHIRELVAKQPGMVGVRLGVKQTGCAGFGYVLDSVSEPDKDDLLFEHDGAKLFVPLQAMPFIDGTEVDFVREGLNQIFKFHNPKAQNECGCGESFGV
modifications: Mts-Atf-biotin on cysteine residues (reducible disulfide bonds)
B1: binds (SufB); binds (SufC).

B2: SufE (natural protein, E. coli, UniProt P76194 1-138, looked up)
chain: MALLPDKEKLLRNFLRCANWEEKYLYIIELGQRLPELRDEDRSPQNSIQGCQSQVWIVMRQNAQGIIELQGDSDAAIVKGLIAVVFILYDQMTPQDIVNFDVRPWFEKMALTQHLTPSRSQGLEAMIRAIRAKAAALS
B2 showed a Kd ((His)6-SufS) of 1.1 nM.

B3: SufA (natural protein, E. coli, UniProt P77667 1-122, looked up)
chain: MDMHSGTFNPQDFAWQGLTLTPAAAIHIRELVAKQPGMVGVRLGVKQTGCAGFGYVLDSVSEPDKDDLLFEHDGAKLFVPLQAMPFIDGTEVDFVREGLNQIFKFHNPKAQNECGCGESFGV
B3 was tested, and the “stoichiometry N” value (SEC) was 2.
